Here are results for 38 variants from the RNAGym collection of RNA variant scans (doi:10.1073/pnas.2313332121).

This sample holds only a part of the variants without activity. Some results are limits rather than exact numbers.

Sequences and labels used below:
B1: TPR 5TU (parent)
chain: GGAUCUUCUCGAUCUAACAAAAAAGACAAAUCUGCCACAAAGCUUGAGAGCAUCUUCGGAUGCAGAGGCGGCAGCCUUCGGUGGCGCGAUAGCGCCAACGUUCUCAACUAUGACACGCAAAACGCGUGCUCCGUUGAAUGGAGUUUAUCAUG

Variants of B1 are the subject of the series. Nature of the series: polymerase ribozyme fitness, log enrichment relative to wild type (log ratio); higher = more active; in vitro selection for triplet polymerase activity. In a few lines: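 After PCR construction and transcription, each subunit's mutant library from a heterodimeric triplet polymerase ribozyme was annealed with a biotinylated primer, the partner subunit and triplets. Incubation was frozen, at −7 °C, and extended constructs were gel-excised, bound to streptavidin beads and amplified by RT-PCR, in one selection round done in triplicate. Fitness is the logarithm of a genotype's enrichment divided by that of the wild type, from inverse-variance-weighted replicate averages of Illumina-sequenced inputs and outputs. The base of the logarithm is 2, and genotypes needed ≥10 input reads and ≥1 read per output.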
As to GGAUCUUCUCGAUCUAACAAAAAAGACAAAUCUGCCACCAAGCUUGAGAGCAUCUUCGGAUACAGUGGCGGCAGCCUUCGGUGGCGCGAUAGCGCCAACGUUCUCAACUAUGACACGCAAAACGCGUGCUCCGGUGAAUGGAAUUUAUCAUG, the “polymerase ribozyme fitness (log ratio)” value is no more than -4.2.
The same measure for GGAUCUUCUCGAUCUAACAAAAAAGACAAAUCUGCCACCAAGCUUGAGAGCAUCUUCGGAUGCAGAGGCGGCAGCCUUCGAUGGCGCGAUAGCGCCAAUGUUGUCAGCUAUGACACGCAAAACGUGUGCUCCGUUGAAUGGAGUUUAUCAUG: no more than -4.2; for GGAUCUUCUCGAUCUAACAAAAAAGACAAAUCUGCCACCAAGCUUGAGAGCAUCUUCGGAUGCAGAGGCGGCAGCCUUCGGUGGCGCGAUAGCGCCAACGUUCUCAACUAUGACACGUAUAACGCGUGCUCCGUUGAAUGGAGUUUAUCAUG: -1.81.
The same measure for GGAUCUUCUCGAUCUAACAAAAAAGACAAAUCUGCCACCAAGCUUGAGAGCAUCUUCGGAUGCAGAGGCGGCAGCCUUCGGUGGCGCGAUUACGCCAACGUUCUCAACUAUGACACGCAAAACGCGUGCUCCGUUGAAGGGAGUUUAUCAUG: no more than -4.2; for GGAUCUUCUCGAUCUAACAAAAAAGACAAAUCUGCCACCAAGCUUGAGAGCAUCUUCACAUGCAGAGGCGGCAGCCUUCGGUGGCGCGAUAGCGCCAACGUUCUCAACUAUGACACGCAAAACGCGUGCUCCGUUGAAUGGAGUUUAUCAUG: -1.49.
Consider GGAUCUUCUCGAUCUAACAAAAAAGACAAAUCUGCCACCAAGCUUGAGAGCAUCUUCGCAUGCAGAGGCGGCAGCCUUCGGUGGCACGAUAGCGCCAACGUUCUCAACUAUGACACGCAAAACGCGUGCUCCGUUGAAUGGAGUUUAUCAUG, for which the “polymerase ribozyme fitness (log ratio)” value was -3.73.
With GGAUCUUCUCGAUCUAACAAAAAAGACAAAUCUGCCACCAACCUUGAGAGCAUCUUCGGAUGCAGAGGCGGCAGCAUUCGGUGGCGCGAUAGCGCCAACGUUCUCAACUAUGACACGCAAAACGCGUGCUCCGUUGAAUGGAGGUUAUCAUG, the “polymerase ribozyme fitness (log ratio)” value was no more than -4.2.
To GGAUCUUCUCGAUCUAACAAAAAAGACAAAUCUGCCACCAAGCUUGAGAGCAUGUUCGGAUGCAGAGGCGGCAGCCUUCGGUGGCGCGAUAGAGCCAACGUUCUCAACUAUGACACGCAAAACGCGUGCUCCGUUGAAUGGAGUUUAUCAUG belongs no more than -4.2; to GGAUCUUCUCGAUCUAACAAAAAAGACAAAUCUGCCACCAAGCUUGAGAGCAUCUUCGGAUGAUGAGGCGGCAGCCUUCGGUGACGCGAUAGGGCCAACGUUCUCAACUAUGACAGGCAAAACGCGUGCUCCGUUGAAUGGAGUUUAUCAUG, no more than -4.2.
GGAUCUUCUCGAUCUAACAAAAAAGACAAAUCUGCCACCAAGCUUGUGAGCAUCUUCGGAUGCAGAGGCGGCAGCCUUCGGUGGCGCGAUAGCGCCAACGUUCUCAACUAUGACACGCAAAACGCGUGCUCCGUUGAAUGGAGUUUAUCAUG: the “polymerase ribozyme fitness (log ratio)” value was -2.53.
GGAUCUUCUCGAUCUAACAAAAAAGACAAAUCUGCCACCAAGCUUGAGAGCAUCUUCGAAUGCAGAGGCGGCAGCCUUCGGUGGCGAGAUAGCGCCAACGUUCUCAACUAUGACACGCAAAACGCGUGCUCCGUUGAAGGGAGUUUAUCAUG: the “polymerase ribozyme fitness (log ratio)” value is no more than -4.2.
The same measure for GGAUCUUCUCGAUCUAACAAAAAAGACAAAUCUGCCACCAAGCUUGAGAGUAUCUUCGGAUGCAGAGGCGGCAGCCUUCGGUGGCGCGAUAGCGCCAACGUUCUUAACUAUGACACGUAAAACGCGUGCUCCGUUGAAUGGAGUUUAUCAUG: -3.78; for GGAUCUUCUCGAUCUAACAAAAAAGACAAAUCUGCCACCAAGCUUGAGAGCAUCUUCGGGUGCAGAGGCGGCAGCCUUCGGUGGCGUGAUAGCGCCAACGUUCUCAACUAUGACACGCAAAACGCGUGCUCCGUUGAAUGGAGUUUCUCAUG: -3.78.
To GGAUCUUCUCGAUCUAACAAAAAAGACAAAUCUGCCACCAAGCUUGAGAGCAUCUUCGGAUGCAGAGACGGCAGCCUUCAGUGGCGCGAUAGCGCCAACGUUCUCAACUAUGACACGUAAAACGCGUUCUCCGUUGAAUGGAGUUUAUCAUG belongs no more than -4.2; to GGAUCUUCUCGAUCUAACAAAAAAGACAAAUCUGCCACCAAGCUUGAGAGCAUCUUCGUAUGCAGAGGCGGCAGCGUUCGGUGGCGCGAUAGCGCCAACGUUCUCAACUAUGACACGCAAAACGCGUGCUCCGUUGAAUGGAGUUGAUCAUG, no more than -4.2; to GGAUCUUCUCGAUCUAACAAAAAAGACAAAUCUGCCACCAAGCUUGAGAGCAUAUUCGGAUGCACAGGCGGCAGCCUUCGGUGGCGCGAUAGAGCCAACGUUCUCAACUAUGACACGCAAAACUCGUGCUCCGUUGACUGGAGUUUAUCAUG, no more than -4.2.
On to GGAUCUUCUCGAUCUAACAAAAAAGACAAAUCUGCCACCAAGCUUGAGAGCAUCUUCGGAUGCAGAGGCGGCAGCCUUCGGUGGCGCGAUAGCGCGAACGUUCUCAACUAUGACACGCAAAACGCGUGCUCCGUUGUAUGGAGUUUAUCAUG, for which the “polymerase ribozyme fitness (log ratio)” value was no more than -4.2.
GGAUCUUCUCGAUCUAACAAAAAAGACAAAUCUGCCACCAAGCUUGAGAGCAUCUUCGGAUGCAGAGGCGGCAGCCUUCGGUGGCGCGCUAGCGCCAACGUUCUCAACUAUGACACGCUGAACGCGUGCACCGUUGAAUGGAGUUUAUCAUG: the “polymerase ribozyme fitness (log ratio)” value was no more than -4.2.
Take GGAUCUUCUCGAUCUAACAAAAAAGACAAAUCUGCCACCAAGCUUGAGAGCAUCUUCGGAUGCAGAGGCGGCAGCCUUCGGUGGCGUGAUAGCGCCAACGGUCUCAACUAUGACACUCAAAACGCGUGCUCCGUUGAAUGGAGUUUAUCAUG: the “polymerase ribozyme fitness (log ratio)” value is -3.2.
The same measure for GGAUCUUCUCGAUCUAACAAAAAAGACAAAUCUGCCACCAAGCUUGAGAGCAUCUUCGGAUGCAGAGGCGGCAGCCUUCGGUGGCGCGAUUGCACCAACGUUCUCAACUAUGACACGCAAAACGCGUGCUCCCUUGAAUGGUGUAUAACAUG: no more than -4.2; for GGAUCUUCUCGAUCUAACAAAAAAGACAAAUCUGCCACCAAGCUUGAGAGCGUCUUCGGAUGCAGAGGCGGCAGCCUUCGGUGGCGCGAUAGCGCCAACGUUCUCAACUAUGACACGCAAAACGCGUGCUCCGUUGAAUGGAGUUUAUCAUG: -2.32.
Turning to GGAUCUUCUCGAUCUAACAAAAAAGACAAAUCUGCCACCAAGCUUGAGAGCAUCUUCGGAUGCAGAGGCGGCAGCCUUCGGUGGCGCGAUAGCGCCAACGUUCUCAACUAUGACACGGAAAACGCGUGCUCCGUUGAAUGGAGUUUAUCAUG, the “polymerase ribozyme fitness (log ratio)” value is -2.92.
In the case of GGAUCUUCUCGAUCUAACAAAAAAGACAAAUCUGCCACCAAGCUUGAGAGCAUCUUCGGAUGCAGAGGCGGCAGCCUUCGGUGGAGCGAUAGCGCCAACGUUCUCAACUAUGACACGAAAAACGCGUGCUCCGUUGAAUGGAGUUUAUCAUG, the “polymerase ribozyme fitness (log ratio)” value is -3.96.
The same measure for GGAUCUUCUCGAUCUAACAAAAAAGACAAAUCUGCCACCAAGCUUGCGAGCAUCUUCGGAUACAGAGGCGGCAGCCUUCGGUGGUGCGAUAGCGCCAUCGUUCUCAACUAUGACACGCAAAACGCGUGCUCCGAUGAAUGGAGUUUAUCAUG: no more than -4.2.
GGAUCUUCUCGAUCUAACAAAAAAGACAAAUCUGCCACCAAGCUUGAGAGCAUCUUCGGAUGCAGAGGCGGCAGCCUUCGGUGGCGCGUUAGCGCCAACGUUCUCAACUAUGACAUGCAAAACGCGUGCUCCGUUGAAUGGAGUUUAUCAUG: the “polymerase ribozyme fitness (log ratio)” value is -2.02.
As for GGAUCUUCUCGAUCUAACAAAAAAGACAAAUCUGCCACCAAGCUUGAGAGCAUCUUCGGAUGCAGAGGCGGCAGCCUUCGGUGGUGCGAUAGCGCCAACGUUCUCAACUAUGACACGCAAAACGCGUGCUCCGUUGAAUGGAGUUUAUUAUG, the “polymerase ribozyme fitness (log ratio)” value was -2.98.
To GGAUCUUCUCGAUCUAACAAAAAAGACAAAUCUGCCACCAAGCUUGAGAGCAUAUUCGGAUGCAGAGGCGGCAGCCUUCGAUGGCGCGAUAGCGCCAACGUUCUCAACUAUGACACGCAAAACGCGUGCUCCGUUGAAUGGAGUUUAUCAUG belongs -3.05; to GGAUCUUCUCGAUCUAACAAAAAAGACAAAUCUGCCACCAAGCUUGAGAGCAUCUUCGGAUUCAGAGGCAGCAGCCUUCGGUGGCGCGAUAGCGCCAACGUUCUCAACUAUGACGCGCAAAACGCGUGCUCCGUUGAAUGGAGUUUAUCAUG, no more than -4.2.
In the case of GGAUCUUCUCGAUCUAACAAAAAAGACAAAUCUGCCACCAAGCUUGAGAGCAUCUUCGGAUGCAGAGGCGGCAGCUUUCGGUUGCGCGAUAGCGCCAACGUUCCCAACUAUGACACGCAAAACGCGUGCUCCGUUGAAUGGAGUUUAUCAUG, the “polymerase ribozyme fitness (log ratio)” value was no more than -4.2.
For GGAUCUUCUCGAUCUAACAAAAAAGACAAAUCUGCCACCAAGCUUGAGAGCAUCUUCGGAUGCACAGGCGGCAGCCUUCGGUCGCGCGAUAGCGCCAACGUUCUCAACUAUGACACGCAAAACGCGUGCUCCGUUGAAUGGAAUUUAUCUUG, the “polymerase ribozyme fitness (log ratio)” value is no more than -4.2.
For GGAUCUUCUCGAUCUAACAAAAAAGACAAAUCUGCCACCAAGCUUGAGAGCAUCUUCGGAUGCAGAGGCGCCAGCCUACGGUGGCGCGAUAGCGUCAACGUUCUCAACUAUGACACGCAAAGCGCGUGCUCCGUUGAAUGGAGUUUAUCAUG, the “polymerase ribozyme fitness (log ratio)” value was no more than -4.2.
In the case of GGAUCUUCUCGAUCUAACAAAAAAGACAAAUCUGCCACCACGCUUGAGAGCAUCUUCGGAUGCAGAGGCGGCAGCCUUCGGUGGCUCGAUAGCGCCAACGUUCUCAACUAUGACACGCAAAACGCGUGCUCCGUUGAAGGGAGUUUAUCAUG, the “polymerase ribozyme fitness (log ratio)” value is no more than -4.2.
The same measure for GGAUCUUCUCGAUCUAACAAAAAAGACAAAUCUGCCACCAAGCUUGAGAGCAUCUUCGGAUGCCGAGGCGGCAGCCUUCGGUGGCGCGAUAGUGCCAACGUUCUCAACUAUGACACGCAAAACGCGUGCUCCGUUGAAUGGAGUUUAUCAUG: no more than -4.2; for GGAUCUUCUCGAUCUAACAAAAAAGACAAAUCUGCCACCAAGCUUGAGAGCGUCUUCGGAUGCAGAGGCAGCAGCCUUCGGUGGCGCGAUAGCGCCAAGAUUCUCAACUAUGACACGCAAAACGCGUGCUCCGUUGAAUGGAGAUUAUCAUG: no more than -4.2; for GGAUCUUCUCGAUCUAACAAAAAAGACAAAUCUGCCACCAAGCUUGAGAGCAUCUUAGGAUGCAGAGGCGGCAGCCUUCGGUGGCACGAUAGCGCCAACGUUCUCAACUAUGACACGCAAAACGCGUGCCCCGUUGAAUGGAGUUUAUCAUG: -2.93.
The same measure for GGAUCUUCUCGAUCUAACAAAAAAGACAAAUCUGCCACCAAGCUUGAGAGCGUCUUCGGAUGCAGAGGCGGCAGCCUUCGGUGGCGCGAUAGCGCCAACGUUCUCAACUAUGACACGCAAAAGGCGUGCUCCGUUGAAUGGAGUUUAUCAUG: -2.84; for GGAUCUUCUCGAUCUAACAAAAAAGACAAAUCUGCCACCAAGCUUGAGAGCAUCUUCGGAUGCAGAGGCGGCAGCCUUGGGUGGCGCGAUAACGCCAACGUUCUCAACUAUGACACGCAAAACGCGUGCUCCGUUGAAUGGAGUUUAUCAUG: -3.32; for GGAUCUUCUCGAUCUAACAAAAAAGACAAAUCUGCCACCAAGCUUGAGAGCAUCUUCGGAUGCAGAGGCGGCAGUCUUCGGUAGCGCGAUAGCGCCAACGUUCUCAACUAUGACACGCAAAACGCGUGCUCCGUUGAAUGGAGUUUAUCAUG: no more than -4.2.
